Test [1] concerns the target nanog_mouse Nanog (UniProt Q80Z64).
Test [2] has the same target. The source holds these as a separate data set.
Test [3] shares this target. The source holds these as a separate data set.

nanog_mouse Nanog, sequence (Q80Z64 whole entry): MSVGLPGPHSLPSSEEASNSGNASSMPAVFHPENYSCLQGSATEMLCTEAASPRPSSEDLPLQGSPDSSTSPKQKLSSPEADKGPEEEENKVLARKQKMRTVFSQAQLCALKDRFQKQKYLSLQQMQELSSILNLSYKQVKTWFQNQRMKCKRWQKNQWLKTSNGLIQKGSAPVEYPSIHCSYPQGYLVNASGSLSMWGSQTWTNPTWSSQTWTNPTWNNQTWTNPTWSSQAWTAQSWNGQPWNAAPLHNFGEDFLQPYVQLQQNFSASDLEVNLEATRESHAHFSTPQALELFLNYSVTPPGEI
Transcription factor SOX-2 (Mus musculus), P48432 T217A;T224A;S228A, sequence (P48432 whole entry T217A/T224A/S228A): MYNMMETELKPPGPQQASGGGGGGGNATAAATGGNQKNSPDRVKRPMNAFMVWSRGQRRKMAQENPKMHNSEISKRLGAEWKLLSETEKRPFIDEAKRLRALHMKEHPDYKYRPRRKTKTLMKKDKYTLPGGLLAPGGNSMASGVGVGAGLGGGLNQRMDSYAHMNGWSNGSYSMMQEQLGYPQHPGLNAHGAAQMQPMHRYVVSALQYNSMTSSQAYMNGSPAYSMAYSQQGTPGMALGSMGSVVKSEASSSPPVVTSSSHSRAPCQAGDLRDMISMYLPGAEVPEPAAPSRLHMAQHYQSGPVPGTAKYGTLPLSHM
Transcription factor SOX-2 (Mus musculus), P48432 T224A, sequence (P48432 whole entry T224A): as the sequence (P48432 whole entry T217A/T224A/S228A) above, with A217T, A228S counted along it
Transcription factor SOX-2 (Mus musculus), P48432 T217A, sequence (P48432 whole entry T217A): as the sequence (P48432 whole entry T217A/T224A/S228A) above, with A224T, A228S counted along it
Transcription factor SOX-2 (Mus musculus), P48432 S228A, sequence (P48432 whole entry S228A): as the sequence (P48432 whole entry T217A/T224A/S228A) above, with A217T, A224T counted along it

As for “Transcription factor SOX-2 (Mus musculus), P48432 S228A”, the “effect of a mutation on the interaction” value with nanog_mouse Nanog [1] was “disrupting interaction”.
As to “Transcription factor SOX-2 (Mus musculus), P48432 T217A”, the “effect of a mutation on the interaction” value in the test with nanog_mouse Nanog [2] is “disrupting interaction”.
With “Transcription factor SOX-2 (Mus musculus), P48432 T217A;T224A;S228A”, the “effect of a mutation on the interaction” value in the test with nanog_mouse Nanog [3] is on record as “disrupting interaction”.
Turning to “Transcription factor SOX-2 (Mus musculus), P48432 T224A”, the “effect of a mutation on the interaction” value with nanog_mouse Nanog [1] is reported as “disrupting interaction”.

The record behind these values is IntAct's records for PubMed 23892456.
